These results are taken from patent publication US20160229920A1 (University of Texas, published 2016).

The target in assay [1] is T1, HER3 on the plasma membrane of SK-BR-3 and BT-474 breast cancer cells (human, UniProt P21860 20-1342).
T1 construct: whole, on cells; also called cell surface HER3
As to the kind of experiment: fluorescence microscopy of SK-BR-3 cells treated with 50 nM antibody for 15 min at 37 C and chased 45 min; detection with Alexa 555 anti-human IgG, co-stain LAMP-1; the cells carry HER2 and HER3 and the staining of the bispecific is not separated between the two. The procedure:
Cells were fixed, permeabilized and stained for LAMP-1. […] Scale bars=2 μm.
For fixation, cells were treated with 1.7% (w/v) paraformaldehyde for 10 minutes at 37° C. and then permeabilized with 0.05% (v/v) saponin for 10 minutes at room temperature in PBS. […] Cells were washed twice with PBS between each incubation step and were stored at 4° C. in 1% BSA/PBS.

Assay [2] has as its target T1, HER3 on the plasma membrane of SK-BR-3 …. As to the kind of experiment: fluorescence microscopy of SK-BR-3 cells pulsed with 50 nM antibody for 5 min at 37 C and chased 0, 10 or 20 min; detection with Alexa 555 anti-human IgG, co-stain EEA-1 [Continued].

B1: bispecific trastuzumab with anti-HER3 Ab6 scFv (TAb6) (bispecific antibody)
heavy: not shown
light: DIELTQSPSSLSASVGDRVTITCRASQDVNTAVAWYQQKPGKAPKLLIYSASFLYSGVPSRFSGSRSGTDFTLTISSLQPEDFATYYCQQHYTTPPTFGQGTKLEIKRTVAAPSVFIFPPSDEQLKSGTASVVCLLNNFYPREAKVQWKVDNALQSGNSQESVTEQDSKDSTYSLSSTLTLSKADYEKHKVYACEVTHQGLSSPVTKSFNRGEC
notes: Morrison format, expressed in CHO cells; also called bispecific anti-HER2/HER3 antibody
Regarding B1, the binding result in assay [1] is on record as “binds”.

B2: tetrameric anti-HER3 (Ab6tet) (antibody)
heavy: not shown
light: DIELTQPASVSGSPGQSITISCTGTSSDVGSYNVVSWYQQHPGKAPKLIIYEVSQRPSGVSNRFSGSKSGNTASLTISGLQTEDEADYYCCSYAGSSIFVIFGGGTKLEIKRTVAAPSVFIFPPSDEQLKSGTASVVCLLNNFYPREAKVQWKVDNALQSGNSQESVTEQDSKDSTYSLSSTLTLSKADYEKHKVYACEVTHQGLSSPVTKSFNRGEC
notes: Residues 1-19 are the leader; also called tetravalent anti-HER3 antibody; multivalent anti-HER3 antibody
For B2, the binding result in assay [2] is listed as “binds”.
